Source: patent US20080107658A1 (AstraZeneca / MedImmune, published 2008)

Columns and labels:
Experiment in all cases: cell-based or functional assay
[1] = target: rat nerve growth factor (beta-NGF) (rat, UniProt P25427 122-241)
[2] = target: mouse nerve growth factor (mouse, UniProt P01139 122-241)
[3] = target: human nerve growth factor (beta-NGF) (human, UniProt P01138 122-241)
human nerve growth factor (beta-NGF), sequence (P01138 122-241): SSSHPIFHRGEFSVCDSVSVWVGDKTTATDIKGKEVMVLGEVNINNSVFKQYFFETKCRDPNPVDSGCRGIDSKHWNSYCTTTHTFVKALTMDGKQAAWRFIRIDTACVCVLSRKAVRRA

rat nerve growth factor (beta-NGF), sequence (P25427 122-241): as the sequence (P01138 122-241) above, with S3T, I6V, R9M, M37T, D60A, D65E, M92T, G94D, V117A, A120G counted along it
mouse nerve growth factor, sequence (P01139 122-241): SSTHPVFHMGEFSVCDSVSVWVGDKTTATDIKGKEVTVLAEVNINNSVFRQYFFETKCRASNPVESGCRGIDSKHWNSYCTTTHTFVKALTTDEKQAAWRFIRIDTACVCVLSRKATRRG

| Binder | IC50, FLIPR calcium mobilisation [1] | IC50, PC12 cell survival [1] | IC50, TF-1 cell proliferation [1] | IC50, FLIPR calcium mobilisation [2] | IC50, TF-1 cell proliferation [2] | IC50, FLIPR calcium mobilisation [3] | IC50, PC12 cell survival [3] | IC50, TF-1 cell proliferation [3] |
| --- | --- | --- | --- | --- | --- | --- | --- | --- |
| 1133C11 human IgG4 (antibody, V domains shown) VH: EVQLVQSGAEVKKPGSSVKVSCKASGGTFSTYGISWVRQAPGQGLEWIGGIIPIFDTGNSAQSFQGRVTITADESTSTAYMEVSSLRSDDTAVYYCASSSRIYDLNPSLTAYYDMDVWGQGTMVTVSS VL: QAVLTQPSSVSTPPGQKVTISCSGSSSNIGNNYVSWYQQLPGTAPKLLIYDNNKRPSGIPDRFSGSKSGTSATLGITGLQTGDEADYYCGTWDSSLSAWVFGGGTKLTVL | 0.3 nM | 0.42 nM | 0.12 nM | 0.28 nM | 0.1 nM | 0.45 nM | 0.53 nM | 0.1 nM |
| 1175H8 human IgG4 (antibody, V domains shown) VH: EVQLVQSGAEVKKPGSSVKVSCKASGGTFSTYGISWVRQAPGQRLEWIGGIIPIFDTGNSAQSFQGRVTITADESTSTAYMEVSSLRSDDTAVYYCASSSRIYDATTGLTPYYDMDVWGQGTMVTVSS VL: QAVLTQPSSVSTPPGQKVTISCSGSSSNIGNNYVSWYQQLPGTAPKLLIYDNNKRPSGIPDRFSGSKSGTSATLGITGLRTGDEADYYCGTWDSSLSAWVFGGGTKLTVL | 0.15 nM |  |  | 0.16 nM |  | 0.37 nM | 1.1 nM |  |
| G1230H7 human IgG4 (antibody, V domains shown) VH: QVQLVQSGAEVKKPGSSVKVSCKASGGTFSTYGISWVRQAPGQGLEWMGGIIPIFDTGNSAQSFQGRVTITADESTSTAYMELSSLRSEDTAVYYCARSSRIYDFNSALISYYDMDVWGQGTMVTVSS VL: QSVLTQPPSVSAAPGQKVTISCSGSSSNIGNNYVSWYQQLPGTAPKLLIYDNNKRPSGIPDRFSGSKSGTSATLGITGLQTGDEADYYCGTWDSSLSAWVFGGGTKLTVL | 0.34 nM | 7.5 nM |  | 0.25 nM |  | 0.31 nM | 2.5 nM |  |
| 1214A1 human IgG4 (antibody, V domains shown) VH: EVQLVQSGAEVKKPGSSVRVSCKASGGTFSTYGISWVRQAPGQGLEWIGGIIPIFDTGNSAQSFQGRVTITADESTSTAYMEVSSLRSDDTAVYYCASSSRIYDAHLQAYYDMDVWGQGTMVTVSS VL: QAVLTQPSSVSTPPGQKVTISCSGSSSNIGNNYVSWYQQLPGTAPKLLIYDNNKRPPGIPDRFSGSKSGTSATLGITGLQTGDEADYYCGTRDSSLSAWVFGGGTKLTVL | 0.16 nM | 0.43 nM |  | 0.14 nM |  | 0.26 nM | 0.52 nM |  |
| G1165D4 human IgG4 (antibody, V domains shown) VH: QVQLVQSGAEVKKPGSSVKVSCKASGGTFSTYGISWVRQAPGQGLEWMGGIIPIFDTGNSAQSFQGRVTITADESTSTAYMELSSLRSEDTAVYYCARSSRIYDLNPSLTAYYDMDVWGQGTMVTVSS VL: QSVLTQPPSVSAAPGQKVTISCSGSSSNIENNYVSWYQQLPGTAPKLLIYDNNKRPSGIPDRFSGSKSGTSATLGITGLQTGDEADYYCGTWDSSLSAWVFGGGTKLTV | 0.33 nM | 2.63 nM |  | 0.27 nM |  | 0.32 nM | 0.86 nM |  |
| 1155H1 human IgG4 (antibody, V domains shown) VH: EVQLVQSGAEVKKPGSSVKVSCKASGGTFSTYGISWVRQAPGQGLEWIGGIIPIFDTGNSAQSFQGRVTITADESTSTAYMEVSSLRSDDTAVYYCASSSRIYDFHLANKGYYDMDVWGQGTMVTVSS VL: QAVLTQPSSVSTPPGQKATISCSGSSSNIGNNYVSWYQQLPGTAPKLLIYDNNKRPSGIPDRFSGSKSGTSATLDITGLQTGDEADYYCGTWDSSLSAWVFGGGTKLTVL | 0.18 nM |  |  | 0.18 nM |  | 0.35 nM | 0.59 nM |  |
| 1218H5 human IgG4 (antibody, V domains shown) VH: EVQLVQSGAVVKKPGSSVKVSCKASGGTFSTYGISWVRQAPGQGLEWIGGIIPIFDTGSSAQSFQGRVTITADESTSTAYMEVSSLRSDDTAVYYCASSSRIYDLNPSLTAYYDMDVWGQGTMVTVSS VL: QAVLTQPSSVSTPPGQKVTISCSGSSSNTGNNYVSWYQQLSGTAPKLLIYDNNKRPSGIPDRFSGSKSGTSATLGITGLQTGDEADYYCGTWDSSLSAWVFGGGTKLTVL | 0.13 nM |  |  | 0.15 nM |  | 0.33 nM | 0.47 nM |  |
| 1214D10 human IgG4 (antibody, V domains shown) VH: EVQLVQSGAEAKKPGSSVKVSCKASGGTFSTYGISWVRQAPGRGLEWIGGIIPIFDTGNSAQSFQGRVAITADESTSTAYMEVSSLRSDDTAVYYCASSSRIYDAHLNHHGYYDMDVWGQGTMVTVSS VL: QAVLTQPSSVSTPPGQKVTISCSGSSSNIGNNYVSWYQQLPGTAPKLLIYDNNKRPSGIPDRFSGSKSGTSATLGITGLQAGDEADYYCGTWDSSLSAWVFGGGTKLTVL | 0.14 nM |  |  | 0.13 nM |  | 0.29 nM | 0.35 nM |  |
| 1158A1 human IgG4 (antibody, V domains shown) VH: EVQLVQSGAEVKKPGSSVKVSCKASGGTFSTYGISWVRQAPGQGLEWIGGIIPIFGTGNSAQSFQGRVTITADESTSTAYMEVSSLRSDDTAVYYCASSSRIYDHHNHVGGYYDMDVWGQGTMVTVSS VL: QAVLTQPSSVSTPPGQKVTISCSGSSSNIGNNYASWYQQLPGTAPKLLIYDNNKRPSGIPDRFSGSKSGTSATLGITGLQTGDEADYYCGTWDGSLSAWVFGGGTKLTVL | 0.12 nM |  |  | 0.11 nM |  | 0.34 nM | 0.48 nM |  |
| 1211G10 human IgG4 (antibody, V domains shown) VH: EVQLVQSGAEVRKPGSSVKVSCKAYGGTFSTYGISWVRQAPGQGLEWVGGIIPIFDTRNSAQSFQGRVTITADESTSTAYMEVSSLRSDDTAVYYCASSSRIYDMVSTLIPYYDMDVWGQGTMVTVSS VL: QAVLTQPSSVSTPPGQKVTISCSGSSSNIGNNYVSWYQQLPGTAPKLLIYDNNKRPSGIPDRFSGSKSGTSATLGITGLQTGDEADYYCGTWDSSLSAWVFGGGTKLTVL | 0.16 nM |  |  | 0.15 nM |  | 0.37 nM | 0.58 nM |  |
| 1160E3 human IgG4 (antibody, V domains shown) VH: EVQLVQSGAEVKKPGSSAKVSCKASGGTFSTYGISWVRQAPGQGLEWIGGIIPIFDTGNSAQSFQGRVTITADESTSTAYMEVSSLRSDDTAVYYCASSSRIYDLNPSLTAYYDMDVWGQGTMVTVSS VL: QAVLTQPSSVSTPPGQKVTISCSGSNSNIGNNYVSWYQQLPGTAPKLLIYDNNKRPSGIPDRFSGSKSGTSATLGITGLQTGDEADYYCGTWDSSLSAWVFGGGTKLTV | 0.13 nM |  |  | 0.12 nM |  | 0.33 nM | 0.4 nM |  |
| 1230H7 human IgG4 (antibody, V domains shown) VH: EMQLVQSGAEVKKPGSSVKVSCKASGGTFSTYGISWVRQAPGQGLEWIGGIIPIFDTGNSAQSFQGRVTITADESTSTAYMEVSSLRSDDTAVYYCASSSRIYDFNSALISYYDMDVWGQGTMVTVSS VL: QAVLTQPSSVSTPPGQKVTISCSGSSSNIGNNYVSWYQQLPGTAPKLLIYDNNKRPSGIPDRFSGSKSGTSATLGITGLQTGDEADYYCGTWDSSLSAWVFGGGTKLTV | 0.18 nM | 0.32 nM |  | 0.15 nM |  | 0.27 nM | 0.42 nM |  |
| 1165D4 human IgG4 (antibody, V domains shown) VH: EVQLVQSGAEVKKPGSSVKVSCKASGGTFSTYGISWVRQAPGQGLEWIGGIIPIFDTGNSAQSFQGRVTITADESTSTAYMEVSSLRSDDTAVYYCASSSRIYDLNPSLTAYYDMDVWGQGTMVTVSS VL: QAVLTQPSSVSTPPGQKVTISCSGSSSNIENNYVSWYQQLPGTAPKLLIYDNNKRPSGIPDRFSGSKSGTSATLGITGLQTGDEADYYCGTWDSSLSAWVFGGGTKLTVL | 0.15 nM | 0.41 nM |  | 0.16 nM |  | 0.26 nM | 0.41 nM |  |
| 1152H5 human IgG4 (antibody, V domains shown) VH: EVQLVQSGAEVKKPGSSVKVSCKASGGTFSTYGISWVRQAPGQGLVWIGGIIPIFDTGNSAQSFQGRVTITADESTSTAYMEVSSLRSDDTAVYYCASSSRIYDMISSLQPYYDMDVWGQGTMVTVSS VL: QAVLTQPSSVSTPPGQKATISCSGSSSNIGNNYVSWYQQLPGTAPKLLIYDNNKRPSGIPDRFSGSKSGTSATLGITGLQTGDEADYYCGTWDSSLSAWVFGGGTKLTVL | 0.21 nM | 0.38 nM | 0.08 nM | 0.14 nM | 0.07 nM | 0.22 nM | 0.4 nM | 0.26 nM |
| 1227H8 human IgG4 (antibody, V domains shown) VH: QMQLVQSGAEVKKTGSSVKVSCKASGHTFAYHYLHWVRQAPGQGLEWMGGIIPIFGTTNYAQRFQDRVTITADESTSTAYMELSSLRSEDTAVYYCASADYAWESYQPPQINGVWGRGTMVTVSS VL: QSVLTQPPSVSAAPGQKVTITCSGSTSNIGNNYVSWYQQHPGKAPKLMIYDVSKRPSGVPDRFSGSKSGNSASLDISGLQSEDEADYYCAAWDDSLSEFFFGTGTKLTVL | 0.43 nM | 35 nM |  | 0.48 nM |  | 0.44 nM | 0.7 nM |  |
| 1230D8 human IgG4 (antibody, V domains shown) VH: QMQLVQSGAEVKKTGSSVKVSCKASGYTFPYHYLHWVRQAPGQGLEWMGGIIPIFGTTNYAQRFQDRVTITADESTSTAYMEFSSLRSEDTAVYYCASADYVWESYHPATSLSLWGRGTMVTVSS VL: QSVLTQPPSVSAAPGQKVTISCPGSTSNIGNNYVSWYQQRPGKAPKLMIYDVSKRPSGVPDRFSGSKSGNSASLDISELQSEDEADYYCAAWDDSLSEFLFGTGTKLTVL | 0.29 nM | 37 nM |  | 0.37 nM |  | 0.31 nM | 0.71 nM |  |
